We go through 3 molecules from publication PMC7144912 (Nucleic Acids Research, 2020).

Data set [1] concerns the target T1, DNMT3B catalytic domain (3B-CD);DNMT3L catalytic-like domain (3L-CD) (Homo sapiens;Homo sapiens, UniProt Q9UBC3;Q9UJW3 571-853;178-379, |). Kind of data set: X-ray crystallography.
The data set “crystal structure” concerns the molecule itself. Kind of data set: crystal structure.
In data set [2] the target is T1, DNMT3B catalytic domain (3B-CD);DNMT3L …. Kind of data set: X-ray crystallography. The source holds these as a separate data set.

Read-outs that look alike come from different tables or passages of the source.

T1 sequence (Q9UJW3 178-379, one chain of several): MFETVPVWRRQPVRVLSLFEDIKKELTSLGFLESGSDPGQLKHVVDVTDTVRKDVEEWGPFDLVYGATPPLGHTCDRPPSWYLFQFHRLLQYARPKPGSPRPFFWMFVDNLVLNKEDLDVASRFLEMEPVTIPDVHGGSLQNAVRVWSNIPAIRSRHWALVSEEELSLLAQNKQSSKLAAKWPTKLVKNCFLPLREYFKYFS

B1: CpGpG crystallization duplex (dsDNA)
DNA 1: GAATTCGGAAAAATTTTTCCGAATT
DNA 2: GAATTCGGAAAAATTTTTCCGAATT
With B1, the binding result in data set [1] is on record as “binds”.

B2: catalytic domain of human DNMT3B (3B-CD, residues 571–853) (domain or fragment, UniProt Q9UBC3 571-853, looked up)
chain: RRRPIRVLSLFDGIATGYLVLKELGIKVGKYVASEVCEESIAVGTVKHEGNIKYVNDVRNITKKNIEEWGPFDLVIGGSPCNDLSNVNPARKGLYEGTGRLFFEFYHLLNYSRPKEGDDRPFFWMFENVVAMKVGDKRDISRFLECNPVMIDAIKVSAAHRARYFWGNLPGMNRPVIASKNDKLELQDCLEYNRIAKLKKVQTITTKSNSIKQGKNQLFPVVMNGKEDVLWCTELERIFGFPVHYTDVSNMGRGARQKLLGRSWSVPVIRHLFAPLKDYFACE
For the molecule B2, the binding result in the data set “crystal structure” was “binds”.

B3: CpGpT crystallization duplex (dsDNA)
DNA 1: GCATGCGTTCTAATTAGAACGCATG
DNA 2: GCATGCGTTCTAATTAGAACGCATG
Regarding B3, the binding result in data set [2] is recorded as “binds”.
